Assay results from US20090068174A1, “THERAPEUTIC ALKALINE PROTEASE COMPOSITIONS AND USE IN FACILITATING THE TRANSPORT OF AGENTS ACROSS THE GASTROINTESTINAL MUCOSAL LINING” (Kansas University Medical Center Research Institute, Inc., priority 2007, published 2009).

Tests used:
TNF-α = molecular target: T1, TNF-α (Mus musculus, UniProt P06804); test: Pretreatment of mice with protease before TNF-α challenge, activated caspase-3 in intestine; type: in vivo
T1 sequence (P06804 80-235 limits assumed): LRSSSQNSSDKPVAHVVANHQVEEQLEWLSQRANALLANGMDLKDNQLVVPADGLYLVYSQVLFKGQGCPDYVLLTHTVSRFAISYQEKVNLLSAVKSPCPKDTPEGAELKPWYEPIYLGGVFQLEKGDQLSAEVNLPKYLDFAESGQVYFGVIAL
Protocol: In this figure, various amounts of deutrolysin and alkaline protease were administered to mice 15 min prior to challenge with TNF-α. Intestinal tissues were again recovered 1 h later and the expression of activated caspase-3 was measured. […] (B) The ability of AP to provide protection against the apoptotic effects of TNF-α in vivo was limited in its duration. Thus, pretreatment of the mice for up to 30 min prior to TNF-α challenge prevented caspase-3 activation, whereas delaying cytokine challenge beyond 30 min diminished the protective effect of the protease.
A modification of this experiment was then performed by injecting various amounts of the proteases for 15 min prior to challenge with TNF-α (FIG. 22). Intestinal tissues were again recovered 1 h later and the expression of activated caspase-3 was measured. […]
Mice were injected i.p. with 5 ng of recombinant mouse TNF-α or protease-treated TNF-α, and 2 cm segments of their duodenums were collected 1 h later. […] The sections were first treated with rabbit antibody to activated (cleaved) mouse caspase-3, and bound antibody was detected using a Histostain-SP kit. For each mouse, tissues were scored by enumerating the number of sections in which less than 10%, 10-50%, or >50% of the intestinal villi expressed activated caspase-3. At least 48 sections were analyzed in this fashion from each mouse.

TNBS-induced colitis = test: Induction of IBD in the hapten (TNBS)-induced SJL mouse model; type: in vivo; settings: SJL mice, i.p. and oral treatment
Protocol: This example uses the TNBS model in the SJL mouse, a susceptible strain, comparing systemic versus oral administration of the alkaline protease as a prophylactic treatment of blocking the induction of gastrointestinal inflammation. Endpoint measurements can include histopathological evaluation and scoring of the lesions as known in the art.
SJL strain mice (Jackson Labs) can be lightly anesthetized, and a solution of 25-50 μg of TNBS in 100 μl 50% ethanol can be administered by enema. Initial studies can determine whether sufficient pathology is induced by a single injection or whether the two challenge protocol (day 0 and day 7) is preferable. Response parameters include: (a) body weight measured on days 0, 2, 4, 6, 8, and 10; (b) pathological scoring of lesions in the intestine on day 10 (0=no inflam; 1=low level leukocyte infiltration; 2=medium infiltration, vascular intensity with some wall thickening; 3=high level infiltration, vascular response and thickening; 4=transmural infiltration, loss of goblet cells); (c) and immunohistological staining for activated caspase-3 and TNF-α. Wall thickening can be measured, for instance, as described by Dohi et al. (1999) “Hapten-induced colitis is associated with colonic patch hypertrophy and T helper cell 2-type responses.” J Expt Med 189: 1169-79, which is incorporated by reference. […]

[1] = Protease stability and solubility in water; type: physicochemical
Protocol: For determining the stability of the alkaline protease in drinking water over 0-4 days, proteases can be dissolved in autoclaved tap water at a concentration of 1 mg/ml and stored at either 25° C. or 4° C. At regular intervals (every 3 hours at 0-18 hours, every 8 hours at 18-24 hours, and every 12 hours at 24-96 hours), aliquots can be ascetically removed and tested for their ability to cleave protamine sulfate using a modification of the ninhydrin assay of Rosen. Results are expressed as % residual activity measured immediately after preparation of the protease solutions.

B1: Alkaline Protease: Aspergillus oryzae alkaline protease (oryzin), SEQ ID NO: 2, purified from the protease powder of Example 1 (protein, listed as Aspergillus oryzae)
chain: MQSIKRTLLLLGAILPAVLGAPVQETRRAAEKLPGKYIVTFKPGIDEAKIQEHTTWATNIHQRSLERRGATGGDLPVGIERNYKINKFAAYAGSFDDATIEEIRKNEDVAYVEEDQIYYLDGLTTQKSAPWGLGSISHKGQQSTDYIYDTSAGEGTYAYVVDSGVNVDHEEFEGRASKAYNAAGGQHVDSIGHGTHVSGTIAGKTYGIAKKASILSVKVFQGESSSTSVILDGFNWAANDIVSKKRTSKAAINMSLGGGYSKAFNDAVENAFEQGVLSVVAAGNENSDAGQTSPASAPDAITVAAIQKSNNRASFSNFGKVVDVFAPGQDILSAWIGSSSATNTISGTSMATPHIVGLSLYLAALENLDGPAAVTKRIKELATKDWKDVKGSPNLLAYNGNA
Pretreatment interval prior to TNF-α challenge that prevented caspase-3 activation (TNF-α): up to 30 min | Effect of protease pretreatment on action of TNF-α in vivo (activated caspase-3) (TNF-α; protease 1-10 μg injected 15 min prior to TNF-α challenge, tissues 1 h later): blocked the action of TNF-α in vivo | Weight loss and IBD induction by TNBS (TNBS-induced colitis): can prevent and/or lessen weight loss and IBD induction by TNBS | Solubility in water [1]: soluble in water | Stability of catalytic activity on storage ([1]; 4° C. storage): stable with 4 °C storage for several weeks | Retention of activity in water ([1]; for 2 days): > 80%
